The results in this text go back to US20030215792A1.

The target of this assay is CXCR4 receptor on cultivated primary astrocytes of rats (rat) (UniProt O08565). The assay can be described thus: cell-based or functional assay.
UniProt O08565, sequence (O08565 whole entry): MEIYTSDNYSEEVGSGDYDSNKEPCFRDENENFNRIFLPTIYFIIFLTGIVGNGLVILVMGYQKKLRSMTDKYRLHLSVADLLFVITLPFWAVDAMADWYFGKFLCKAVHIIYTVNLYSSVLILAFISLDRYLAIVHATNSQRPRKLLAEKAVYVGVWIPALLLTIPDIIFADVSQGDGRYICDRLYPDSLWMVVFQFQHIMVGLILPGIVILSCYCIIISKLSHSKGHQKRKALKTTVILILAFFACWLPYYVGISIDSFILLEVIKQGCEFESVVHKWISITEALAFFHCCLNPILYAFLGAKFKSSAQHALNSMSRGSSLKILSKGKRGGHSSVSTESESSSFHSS

Regarding “SDF-1α (R&D Systems, Wiesbaden) (ligand)”, the decrease in intracellular calcium outflow in cultivated astrocytes after 5 minutes' pre-incubation with monoclonal antibody 12G5 was 50%.
